Data: patent US20250215104A1 (WALDEN BIOSCIENCES, published 2025)
Positions count from the first letter of the chain named.

B1: suPAR_DB02_A07 (scFv, V domains shown)
VH: QVQLVQSGAEVKKPGASVKVSCKASGYNIKDYYIHWVRQAPGQGLEWMGWISPDSGVTNYAQKFQGRVTMTRDTSTSTVYMELSSLRSEDTAVYYCARGYDVDWFVYWGQGTLVTVSS
VL: DIQMTQSPSSLSASVGDRVTITCSARQSVSYMYWYQQKPGKAPKLLIYRTSNLASGVPSRFSGSGSGTDFTLTISSLQPEDFATYYCQQYHSYPPTFGGGTKVEIK
notes: Screened as scFv
B2: suPAR_DB02_A11 (scFv, V domains shown)
VH: QVQLVQSGAEVKKPGASVKVSCKASGGTFSSYYMHWVRQAPGQGLEWMGWIDPSNGNTIYDQKFQGRVTMTRDTSTSTVYMELSSLRSEDTAVYYCARGYDVDWFVYWGQGTLVTVSS
VL: B1 VL
notes: Screened as scFv
B3: suPAR_DB02_A08 (scFv, V domains shown)
VH: B2 VH with G27Y, S30T, S31T, S54E, D61A
VL: B1 VL with Q27S
notes: Screened as scFv
B4: suPAR_DB02_B07 (scFv, V domains shown)
VH: B2 VH with G27H, S54E, D61A
VL: B1 VL with V29I
notes: Screened as scFv
B5: suPAR_DB02_B09 (scFv, V domains shown)
VH: B2 VH with G27Y, S30T, S31G, M34V, P53H, R98S
VL: B1 VL with Q27S
notes: Screened as scFv
B6: suPAR_DB02_A12 (scFv, V domains shown)
VH: B2 VH with G27Y, S30T, S31N, P53H, S54E, N57S, D61A, V102M
VL: B1 VL with Q27S
notes: Screened as scFv
B7: suPAR_DB02_B06 (scFv, V domains shown)
VH: B2 VH with G27D, S30T, P53H, S54E, N55G, N57S, D61A, K63Q
VL: B1 VL with Q27S
notes: Screened as scFv
B8: suPAR_DB02_C01 (scFv, V domains shown)
VH: B2 VH with G27Y, S30T, S31G, S54E, N57S
VL: B1 VL with S24R
notes: Screened as scFv
B9: suPAR_DB02_A09 (scFv, V domains shown)
VH: B2 VH with G27Y, S30T, S31N, S54E, N55G, N57S
VL: B1 VL with V29I
notes: Screened as scFv
B10: suPAR_DB02_B03 (scFv, V domains shown)
VH: B2 VH with G27Y, S30I, S31G, Y32N, M34I, P53H, S54E, N57S, Y100S
VL: B1 VL with Q27S
notes: Screened as scFv
B11: suPAR_DB02_B05 (scFv, V domains shown)
VH: B2 VH with G27Y, S30T, P53H, S54E, I59S, D61A
VL: B1 VL with S24R
notes: Screened as scFv
B12: suPAR_DB02_A10 (scFv, V domains shown)
VH: B2 VH with G27Y, S30T, S31G, Y32N, P53H, S54E, Y100S
VL: B1 VL with Q27S
notes: Screened as scFv
B13: suPAR_DB02_B04 (scFv, V domains shown)
VH: B2 VH with G27Y, S30T, S31G, Y32H, P53H, S54E
VL: B1 VL with Q27S
notes: Screened as scFv
B14: suPAR_DB02_B08 (scFv, V domains shown)
VH: B2 VH with G27Y, T28S, S30T, S31N, P53H, S54E, N57S, I59S
VL: B1 VL with Q27S
notes: Screened as scFv
B15: suPAR_DB02_B01 (scFv, V domains shown)
VH: B2 VH with G27Y, S30T, S31G, Y32H, M34V, P53H, S54E
VL: B1 VL
notes: Screened as scFv
B16: suPAR_DB02_B10 (scFv, V domains shown)
VH: B2 VH with G27Y, S30T, S31N, S54E, I59S
VL: B1 VL with S24R
notes: Screened as scFv

biological target: T1, human soluble urokinase plasminogen activator receptor (hsuPAR) (human, UniProt Q03405 23-303, limits assumed); experiment: BLI (Octet) off-rate screen of scFv
T1 construct: also called human suPAR; rhuPAR-His
T1 sequence (Q03405 23-303 limits assumed): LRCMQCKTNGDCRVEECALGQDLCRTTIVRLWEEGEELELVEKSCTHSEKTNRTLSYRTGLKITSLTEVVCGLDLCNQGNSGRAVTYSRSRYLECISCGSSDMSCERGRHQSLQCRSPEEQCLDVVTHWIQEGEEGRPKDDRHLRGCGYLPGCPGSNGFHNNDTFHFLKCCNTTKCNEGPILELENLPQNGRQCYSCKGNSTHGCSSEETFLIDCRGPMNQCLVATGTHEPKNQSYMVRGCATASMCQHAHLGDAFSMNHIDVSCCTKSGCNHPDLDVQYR

| koff | Binder |
| --- | --- |
| 0.00114 s⁻¹ | B1 |
| 0.00447 s⁻¹ | B2 |
| 0.00363 s⁻¹ | B3 |
| 0.00447 s⁻¹ | B4 |
| 0.00422 s⁻¹ | B5 |
| 0.0017 s⁻¹ | B6 |
| 0.00353 s⁻¹ | B7 |
| 0.00465 s⁻¹ | B8 |
| 0.00613 s⁻¹ | B9 |
| 0.00088 s⁻¹ | B10 |
| 0.0041 s⁻¹ | B11 |
| 0.00319 s⁻¹ | B12 |
| 0.00477 s⁻¹ | B13 |
| 0.00155 s⁻¹ | B14 |
| 0.00253 s⁻¹ | B15 |
| 0.00189 s⁻¹ | B16 |

biological target: T2, cynomolgus soluble urokinase plasminogen activator receptor (cynomolgus suPAR) (cynomolgus, UniProt Q9GK78 23-303, limits assumed); experiment: BLI (Octet) off-rate screen of scFv
T2 construct: also called cynomolgus uPAR; cynoPLAUR-His
T2 sequence (Q9GK78 23-303 limits assumed): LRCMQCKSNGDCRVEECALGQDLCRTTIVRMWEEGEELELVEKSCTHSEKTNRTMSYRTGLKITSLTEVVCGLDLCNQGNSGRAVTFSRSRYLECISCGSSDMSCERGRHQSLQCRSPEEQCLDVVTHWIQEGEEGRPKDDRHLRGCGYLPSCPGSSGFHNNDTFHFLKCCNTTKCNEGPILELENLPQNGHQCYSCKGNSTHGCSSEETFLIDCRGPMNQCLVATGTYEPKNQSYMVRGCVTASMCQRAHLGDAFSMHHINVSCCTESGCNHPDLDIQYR

| koff | Binder |
| --- | --- |
| 0.000352 s⁻¹ | B1 |
| 0.000232 s⁻¹ | B2 |
| 7.98e-05 s⁻¹ | B3 |
| 8.12e-05 s⁻¹ | B4 |
| 0.000208 s⁻¹ | B5 |
| 2.26e-05 s⁻¹ | B6 |
| 0.000127 s⁻¹ | B7 |
| 0.00025 s⁻¹ | B8 |
| 0.000484 s⁻¹ | B9 |
| 0.000424 s⁻¹ | B10 |
| 0.000199 s⁻¹ | B11 |
| 0.00024 s⁻¹ | B12 |
| 0.000185 s⁻¹ | B13 |
| 8.61e-05 s⁻¹ | B14 |
| 0.000363 s⁻¹ | B15 |
| 0.000434 s⁻¹ | B16 |
